The labels stand for the following.
B1: ADI-20096, IgG1 format (antibody, V domains shown)
VH: EVQLVESGGGLVKPGGSLRLSCAASGFTFSSYSMNWVRQAPGKGLEWVSSISSSSNYIYYADSVKGRFTISRDNAKNSLYLQMNSLRAEDTAVYYCARGAPLGYSWEYFDLWGRGTLVTVSS
VL: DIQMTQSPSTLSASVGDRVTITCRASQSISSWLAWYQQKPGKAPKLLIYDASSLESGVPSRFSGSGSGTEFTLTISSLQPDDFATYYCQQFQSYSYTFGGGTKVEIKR
notes: Made in yeast
B2: ADI-20113, IgG1 format (antibody, V domains shown)
VH: QVQLVESGGGVVQPGRSLRLSCAASGFTFSSYGMHWVRQAPGKGLEWVAVISYDGSNKYYADSVKGRFTISRDNSKNTLYLQMNSLRAEDTAVYYCARGRPWYSETGTSAFDIWGQGTMVTVSS
VL: EIVMTQSPATLSVSPGERATLSCRASQSVSSNLAWYQQKPGQAPRLLIYSASTRATGIPARFSGSGSGTEFTLTISSLQSEDFAVYYCQQHNVYPPYTFGGGTKVEIKR
notes: Made in yeast
B3: ADI-20065, IgG1 format (antibody, V domains shown)
VH: QLQLQESGPGLVKPSETLSLTCTVSGGSISSSSYYWGWIRQPPGKGLEWIGSIYYSGSTYYNPSLKSRVTISVDTSKNQFSLKLSSVTAADTAVYYCARDPGYSASPNWFDPWGQGTLVTVSS
VL: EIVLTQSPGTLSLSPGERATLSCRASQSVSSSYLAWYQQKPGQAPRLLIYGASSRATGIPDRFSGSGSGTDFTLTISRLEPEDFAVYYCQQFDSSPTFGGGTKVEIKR
notes: Made in yeast
B4: ADI-20066, IgG1 format (antibody, V domains shown)
VH: B3 VH
VL: EIVLTQSPGTLSLSPGERATLSCRASQSVSSSFLAWYQQKPGQAPRLLIYGASSRATGIPDRFSGSGSGTDFTLTISRLEPEDFAVYYCQQYDVFPITFGGGTKVEIKR
notes: Made in yeast
B5: ADI-20048, IgG1 format (antibody, V domains shown)
VH: QVQLQESGPGLVKPSETLSLTCTVSGGSISSYYWSWIRQPPGKGLEWIGYIYSSGSTNYNPSLKSRVTISVDTSKNQFSLKLSSVTAADTAVYYCARDAPGGSSYQDYYMDVWGKGTTVTVSS
VL: EIVLTQSPATLSLSPGERATLSCRASQSVSSYLAWFQQKPGQAPRLLIYDASNRATGIPARFSGSGSGTDFTLTISSLEPEDFAVYYCQQAFSMPPTFGGGTKVEIKR
notes: Made in yeast

The results in this text go back to US20200140562A1 (Innovent, published 2020).

The target of the first assay is T1, human OX40 on cells (CHO-hOX40, 293HEK-hOX40, Jurkat-hOX40, activated primary CD4+ T cells) (human, UniProt P43489 29-277).
T1 sequence (looked up): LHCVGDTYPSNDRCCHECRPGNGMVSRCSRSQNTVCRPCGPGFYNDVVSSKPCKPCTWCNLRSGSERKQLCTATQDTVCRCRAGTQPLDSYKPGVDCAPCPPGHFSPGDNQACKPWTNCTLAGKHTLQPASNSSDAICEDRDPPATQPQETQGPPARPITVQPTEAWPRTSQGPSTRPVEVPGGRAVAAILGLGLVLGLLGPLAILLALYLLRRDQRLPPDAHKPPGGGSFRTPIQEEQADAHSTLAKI
The assay can be described thus: cell-based or functional assay.
Regarding B1, the “NFkB-Luc fold change in Jurkat stimulated by PHA+ anti-CD28” value (“NFkB-Luc fold change … by PHA+ anti-CD28” for short) is 4.57 fold over IgG4 control and the “NFkB-Luc fold change in Jurkat stimulated by anti-CD3+ anti-CD28” value is 5.12 fold over IgG4 control.
For B2, in that order: 3.79 fold over IgG4 control and 3.98 fold over IgG4 control.
For B3, the “NFkB-Luc fold change … by PHA+ anti-CD28” value was found to be 2.11 fold over IgG4 control and the “NFkB-Luc fold change in Jurkat stimulated by anti-CD3+ anti-CD28” value stood at 1.19 fold over IgG4 control.
The matching figures for B4: 2.09 fold over IgG4 control and 1.96 fold over IgG4 control.
Regarding B5, the “NFkB-Luc fold change … by PHA+ anti-CD28” value came to 3.63 fold over IgG4 control and the “NFkB-Luc fold change in Jurkat stimulated by anti-CD3+ anti-CD28” value came to 5.77 fold over IgG4 control.

The next assay addresses T1, human OX40 on cells (CHO-hOX40, …). The assay can be described thus: flow cytometry, CHO-hOX40, 100 nM. A general note: A flow cytometer gives signals particle by particle.
Turning to B1, the “CHO-OX40 binding intensity (MFI)” value worked out at 133000 MFI.
On to B2, for which the “CHO-OX40 binding intensity (MFI)” value came out at 152000 MFI.
The same measure, in the same setting: with B3 the figure was 157000 MFI; with B4, 161000 MFI; with B5, 143000 MFI.

The target is the same in a further assay. The assay can be described thus: flow cytometry, 293HEK-hOX40, 8 nM.
As for B1, the MFI was found to be 1.1e+06 MFI.
Still for that read-out and setting: the same measure for B2: 2e+06 MFI.
The molecule B3 registered an MFI of 2.46e+06 MFI.
The same measure, in the same setting: the same measure for B4: 2.82e+06 MFI; for B5: 1.73e+06 MFI.

For the next assay the target is unchanged. The assay can be described thus: flow cytometry, 293HEK-hOX40, 40 nM.
For the molecule B1, the MFI amounted to 1.82e+06 MFI.
The same measure, in the same setting: the same measure for B2: 2.18e+06 MFI.
Still for that read-out and setting: the same measure for B3: 2.42e+06 MFI; for B4: 2.39e+06 MFI; for B5: 1.85e+06 MFI.

The target is the same in the next assay. The assay can be described thus: flow cytometry, 293HEK-hOX40, 1.6 nM.
B1 yielded an MFI of 417000 MFI.
The same measure, in the same setting: with B2 the figure was 734000 MFI.
In turn, B3 had an MFI of 808000 MFI.
On the same count and under the same terms, with B4 the figure was 626000 MFI; with B5, 977000 MFI.

A further assay has the same target. The assay can be described thus: flow cytometry, 293HEK-hOX40, 200 nM.
Turning to B1, the MFI came out at 1.84e+06 MFI.
Take B2: the MFI turned out to be 2.41e+06 MFI.
For the molecule B3, the MFI turned out to be 3.03e+06 MFI.
Turning to B4, the MFI is 2.55e+06 MFI.
The same measure, in the same setting: with B5 the figure was 1.7e+06 MFI.

For a further assay, the target named is T2, human OX40_Fc (R&D Systems) (human, UniProt P43489 29-216).
T2 construct: Bought
The assay can be described thus: BLI, IgG1 on tip, hOX40-Fc 50 nM, avid.
Regarding B1, the Kd was 3.36 nM.
As for B2, the affinity, expressed as Kd, was 1.22 nM.
Still for that read-out and setting: the same measure for B3: 0.352 nM.
On the same count and under the same terms, with B4 the figure was 0.91 nM; with B5, 3.68 nM.

Another assay deals with T3, cyno OX40_Fc (Acro Biosystems) (cyno).
T3 construct: Bought
The assay can be described thus: BLI, IgG1 on tip, cyno OX40-Fc 100 nM, avid.
As for B2, binding was characterised by a dissociation constant (Kd) of 5.52 nM.
On to B3, for which the Kd is 5.77 nM.
Regarding B4, the dissociation constant Kd stood at 14.3 nM.
B5 gave a Kd of 9.86 nM.

A further assay has as its target T4, mouse OX40Fc (Acro Biosystems) (mouse, UniProt P47741 20-211, limits assumed).
T4 construct: Bought; not shown: Fc
T4 sequence (looked up): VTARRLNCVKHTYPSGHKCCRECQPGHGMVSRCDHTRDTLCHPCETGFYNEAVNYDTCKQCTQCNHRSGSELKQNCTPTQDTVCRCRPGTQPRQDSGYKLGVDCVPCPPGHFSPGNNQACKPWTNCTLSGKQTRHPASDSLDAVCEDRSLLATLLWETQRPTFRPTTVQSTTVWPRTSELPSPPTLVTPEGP
The assay can be described thus: BLI, IgG1 on tip, mouse OX40-Fc in solution.
For B2, the binding result is given as “no binding (tested: 100 nM)”.
Same read-out and setting: with B3 the entry was “no binding (tested: 100 nM)”.
For B4, the binding result is on record as “no binding (tested: 100 nM)”.

The target of a further assay is T4, mouse OX40Fc (Acro Biosystems). The assay can be described thus: BLI, IgG1 on tip, mouse OX40-Fc 100 nM, avid.
B1 showed a Kd of 5.41 nM.
B5 had a Kd of 3.76 nM.

The next assay has as its target T1, human OX40 on cells (CHO-hOX40, …). The assay can be described thus: flow cytometry, MFI on CHO-hOX40 over wild-type CHO.
In turn, B1 yielded a Fold difference of 1970 fold.
The molecule B2 gave a Fold difference of 2460 fold.
Same read-out and setting: with B3 the figure was 2240 fold.
Same read-out and setting: with B4 the figure was 2750 fold.
Consider B5, for which the Fold difference is 1470 fold.

The target is the same in a further assay. The assay can be described thus: flow cytometry, activated CD4+ T cells, donor 1, 100 nM.
As for B1, the MFI stood at 54600 MFI.
Same read-out and setting: with B2 the figure was 84400 MFI; with B3, 153000 MFI.
Regarding B4, the MFI came out at 134000 MFI.
The same measure, in the same setting: the same measure for B5: 43100 MFI.

Another assay shares this target. The assay can be described thus: flow cytometry, activated CD4+ T cells, donor 2, 100 nM.
With B1, the MFI came to 75400 MFI.
On to B2, for which the MFI stood at 115000 MFI.
For the molecule B3, the MFI worked out at 209000 MFI.
With B4, the MFI was determined as 193000 MFI.
Still for that read-out and setting: with B5 the figure was 62600 MFI.

A further assay has the same target. The assay can be described thus: flow cytometry, CHO-hOX40, 100 nM blocker, competitor OX40L-hFc-fluorescein.
B1: the “MFI of OX40L signal on CHO-OX40 cells” value worked out at 31900 MFI.
In the case of B2, the “MFI of OX40L signal on CHO-OX40 cells” value worked out at 24000 MFI.
On the same count and under the same terms, the same measure for B3: 33700 MFI; for B4: 32800 MFI.
On to B5, for which the “MFI of OX40L signal on CHO-OX40 cells” value is 34300 MFI.

Broadly, the Kd is the concentration at which binding is half-saturated. Low readings indicate higher affinity, high ones lower affinity.
